According to PMC3904721, “The BEL1-like family of transcription factors in potato”:
Blank lines part the entries; values can stand above or below the molecule they belong to.

Experiments:
[1] = biological target: NTH1 (tobacco); experiment: two-hybrid; Matchmaker system (Clontech), yeast strain pJ69-2A; StBELs in pACT-AD (GAL4 activation domain), KNOX proteins in pBridge (GAL4-binding domain); co-transformation, selection on -Leu/-Trp/-His/-Ade; lacZ induction quantified by β-galactosidase assay (Miller units), three replicate samples
[2] = biological target: POTATO HOMEOBOX1 (POTH1) (potato); experiment: as above
[3] = biological target: T1, StBEL5-GST;POTH1-GST (Solanum tuberosum (potato);Solanum …, UniProt Q8LLE4;P93588 1-688;1-345, |); experiment: EMSA; 2 mM Mg2+; 20 mM HEPES pH 7.5, 50 mM KCl, 2 mM MgCl2, 0.5 mM EDTA, 1 mM DTT, 10% glycerol, 0.5% Triton X-100, 20 ng/ul BSA, 50 ng/ul poly(dI-dC), 20 ul, on ice 60 min; 10; conditions: protein: recombinant;recombinant; tags: C-terminal GST;C-terminal GST; copies: 1;1; label: 3' biotin; blunt
T1 sequence 1: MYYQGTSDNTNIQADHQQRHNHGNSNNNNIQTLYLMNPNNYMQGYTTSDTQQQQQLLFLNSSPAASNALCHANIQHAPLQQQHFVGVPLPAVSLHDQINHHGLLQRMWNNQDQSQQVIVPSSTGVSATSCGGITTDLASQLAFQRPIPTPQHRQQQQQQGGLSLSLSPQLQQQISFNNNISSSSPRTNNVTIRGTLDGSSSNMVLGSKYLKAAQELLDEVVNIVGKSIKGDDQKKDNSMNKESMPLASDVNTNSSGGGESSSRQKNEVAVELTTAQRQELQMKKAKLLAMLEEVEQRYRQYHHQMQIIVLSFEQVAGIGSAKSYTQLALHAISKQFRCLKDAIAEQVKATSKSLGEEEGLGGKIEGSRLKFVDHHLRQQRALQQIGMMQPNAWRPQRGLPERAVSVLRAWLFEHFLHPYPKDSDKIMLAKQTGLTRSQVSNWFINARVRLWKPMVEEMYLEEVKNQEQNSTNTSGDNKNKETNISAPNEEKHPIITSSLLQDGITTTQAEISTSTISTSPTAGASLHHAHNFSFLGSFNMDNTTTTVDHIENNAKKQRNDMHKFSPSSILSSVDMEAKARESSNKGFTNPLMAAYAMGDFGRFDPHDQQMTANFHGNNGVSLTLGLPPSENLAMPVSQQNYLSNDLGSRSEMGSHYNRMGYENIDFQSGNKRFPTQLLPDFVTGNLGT
T1 sequence 2: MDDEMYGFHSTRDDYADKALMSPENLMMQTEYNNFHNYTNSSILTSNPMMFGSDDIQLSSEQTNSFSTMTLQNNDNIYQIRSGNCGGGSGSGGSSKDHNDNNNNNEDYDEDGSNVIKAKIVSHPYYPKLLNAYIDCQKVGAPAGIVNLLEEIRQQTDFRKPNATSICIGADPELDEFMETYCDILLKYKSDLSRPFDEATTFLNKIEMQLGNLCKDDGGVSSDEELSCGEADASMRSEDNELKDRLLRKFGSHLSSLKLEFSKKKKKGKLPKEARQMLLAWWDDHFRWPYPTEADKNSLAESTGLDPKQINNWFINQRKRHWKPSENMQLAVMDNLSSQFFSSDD

Molecule: StBEL6 (natural protein)
beta-galactosidase activity [1]: 58 Miller units

Molecule: StBEL13 (from UniProt M1AMS7 1-738) (natural protein)
beta-galactosidase activity [1]: 233 units

B1: StBEL34 bait (BEL34S/BEL34A) (dsDNA)
DNA 1: CCTTTCAATAAGATTATTGACGGTGACAATACTCGCCGTCAAA
DNA 2: TTTGACGGCGAGTATTGTCACCGTCAATAATCTTATTGAAAGG
binding result [3]: binds

Other lines, results leading:

beta-galactosidase activity [1]: 25 Miller units
Molecule: StBEL31 (from UniProt M0ZWL8 1-423) (natural protein)

beta-galactosidase activity [2]: 274 units
Molecule: StBEL33 (from UniProt M1C8Y5 1-505) (natural protein)
